Reference: patent publication US20180318451A1 (published 2018)

Legend:
[1] = target: T1, rhPSMA, extracellular part of human PSMA (residues 44-750) with its native N-terminus (human, UniProt Q04609 44-750, N-glycosylated (made in Schneider S2 insect cells)); test: ELISA on coated rhPSMA; G4 taken as the sixth candidate
T1 construct: range 44-750; No tag; also called wild-type rhPSMA; rhGCPII
Experimental: 50 μL of rhPSMA (5 μg/mL in TBS) was directly adsorbed onto the surface of a MaxiSorp 96-well plate overnight at 4° C. Similarly, ovalbumin-coated wells (10 μg/mL in PBS) were used as a negative control. After blocking with 250 μL of 2% w/v BSA for 1 h at room temperature, 50 μL from a serial Anticalin dilution in PBS was added to each well and incubated for 1 h. The plates were washed three times and bound Anticalins were detected with StrepTactin-AP as described further above. The data were analyzed using Prism 5 software (GraphPad) and absorption values (A) were fitted according to the formula ΔA=Aₘₐₓ·[Lₜₒₜ]/(KD+[Lₜₒₜ]) with the concentration of the applied lipocalin variant [Lₜₒₜ] and the dissociation constant KD.
Specific binding activities of selected Anticalins toward rhPSMA as well as apparent affinity constants were initially determined by ELISA in 96-well Maxisorp plates coated with the recombinant wild-type PSMA protein. Anticalins were applied in a dilution series and detected via the C-terminal Strep-tag II. Five of the six analyzed Anticalin candidates specifically recognized PSMA with apparent dissociation constants (K₀ values) ranging from 6 to 42 nM, for A3 and H3, respectively (FIG. 4). For comparison, binding activity towards ovalbumin, which served as a negative control, was negligible. The G4 clone was later found to bind the anti-FLAG antibody (not shown).

[2] = target: T1, rhPSMA, extracellular part of human …; test: SPR (BIAcore), rhPSMA on chip
Experimental: Surface plasmon resonance (SPR) spectroscopy was performed on a BIAcore 2000 instrument (BIAcore) following published procedures (Gebauer, M. et al. [2013] J. Mol. Biol. 425:780-802; De Crescenzo, G. et al. [2008] J. Mol. Recognit. 21:256-266). rhPSMA (1 nM in 10 mM Na-acetate pH 5.0) was immobilized on a CM5 sensor chip (BIAcore) using an amine coupling kit (GE Healthcare, BR100050), resulting in around 500 resonance units (ΔRU). The purified Anticalins were diluted in HEPES buffered saline (HBS; 10 mM HEPES/NaOH, 150 mM NaCl, pH 7.4) with 0.005% v/v Tween 20 to concentrations from 64-2 nM. The instrument was operated using the same running buffer at a flow rate of 25 μL/min. […] Regeneration of the sensor chip was achieved by up to four injections of 10 μL glycine/HCl, pH 2.0. The sensorgrams were corrected by double subtraction of the corresponding signals measured for the in-line control blank channel and an averaged baseline determined from three buffer blank injections³¹. Kinetic parameters were determined by data fitting using a 1:1 Langmuir binding model with BIAevaluation software version 4.1 (BIAcore). […]

[3] = target: T1, rhPSMA, extracellular part of human …; test: SPR (BIAcore), rhPSMA on chip, Anticalin as analyte
Experimental: Surface plasmon resonance (SPR) spectroscopy was performed on a BIAcore 2000 instrument (BIAcore) following published procedures (Gebauer, M. et al. [2013] J. Mol. Biol. 425:780-802; De Crescenzo, G. et al. [2008] J. Mol. Recognit. 21:256-266). rhPSMA (1 nM in 10 mM Na-acetate pH 5.0) was immobilized on a CM5 sensor chip (BIAcore) using an amine coupling kit (GE Healthcare, BR100050), resulting in around 500 resonance units (ΔRU). The purified Anticalins were diluted in HEPES buffered saline (HBS; 10 mM HEPES/NaOH, 150 mM NaCl, pH 7.4) with 0.005% v/v Tween 20 to concentrations from 64-2 nM. The instrument was operated using the same running buffer at a flow rate of 25 μL/min. […] Regeneration of the sensor chip was achieved by up to four injections of 10 μL glycine/HCl, pH 2.0. The sensorgrams were corrected by double subtraction of the corresponding signals measured for the in-line control blank channel and an averaged baseline determined from three buffer blank injections³¹. Kinetic parameters were determined by data fitting using a 1:1 Langmuir binding model with BIAevaluation software version 4.1 (BIAcore).
Several combinations of mutations occurring in the PSMA-specific Lcn2 variants A3A5.1 (carrying 5 new mutations) and A3A5.7 (carrying 4 new mutations) were prepared in order to investigate the relevance of the mutations that were found during affinity maturation for improved PSMA binding with the aim to create a combined Anticalin variant suitable for further protein engineering studies. A first combination, containing solely the mutations located in the loop regions of the Anticalins, was carried out by introducing the following mutations into the sequence of A3A5 (see SEQ ID NO:2): (i) a Y at position 71 as also present in A3A5.1, (ii) an N at position 74 as also present in A3A5.7, (iii) a D at position 103 as also present in A3A5.1. This triple substitution variant, termed A3A5.8, was obtained by gene synthesis, cloned and subsequently expressed (as described in Example 1).

[4] = target: T2, full-length human PSMA expressed on cells (HEK293T/PSMA transfectants, LNCaP) (human, UniProt Q04609 1-750); test: immunofluorescence microscopy on fixed, permeabilized cells
T2 construct: whole, on cells; Transfected in HEK293T/17 cells, endogenous in LNCaP cells; In the Western blot it stood in SDS cell lysates; also called full length wild-type PSMA; cellular PSMA
T2 sequence (Q04609 whole entry): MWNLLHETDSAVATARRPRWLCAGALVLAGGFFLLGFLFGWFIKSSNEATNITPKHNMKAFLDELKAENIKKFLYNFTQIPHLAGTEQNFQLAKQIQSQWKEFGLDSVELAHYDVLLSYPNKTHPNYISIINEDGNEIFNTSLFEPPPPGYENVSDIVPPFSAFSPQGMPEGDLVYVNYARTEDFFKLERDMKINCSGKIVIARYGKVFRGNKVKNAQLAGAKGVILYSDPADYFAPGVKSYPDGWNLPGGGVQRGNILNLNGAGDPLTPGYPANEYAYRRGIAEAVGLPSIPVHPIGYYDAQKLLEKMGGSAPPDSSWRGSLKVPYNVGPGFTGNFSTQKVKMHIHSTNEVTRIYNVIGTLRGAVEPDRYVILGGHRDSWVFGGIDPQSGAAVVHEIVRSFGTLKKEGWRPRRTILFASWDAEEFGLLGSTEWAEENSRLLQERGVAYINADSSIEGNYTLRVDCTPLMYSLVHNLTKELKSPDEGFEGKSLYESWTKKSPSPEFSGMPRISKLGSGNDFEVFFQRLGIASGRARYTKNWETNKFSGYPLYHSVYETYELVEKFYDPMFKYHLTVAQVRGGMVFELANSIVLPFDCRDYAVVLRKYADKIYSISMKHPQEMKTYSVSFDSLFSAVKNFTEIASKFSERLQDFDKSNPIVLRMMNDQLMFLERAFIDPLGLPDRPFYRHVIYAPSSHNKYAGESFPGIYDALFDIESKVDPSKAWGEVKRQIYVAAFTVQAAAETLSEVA
Experimental: PSMA-positive and -negative cells grown on cover slides coated with gelatin (0.1% w/v) were washed twice with PBS, fixed with 4% w/v paraformaldehyde in PBS for 15 min, permeabilized by treatment with PBS containing 0.1% v/v Triton X-100 for 15 min, and incubated in the blocking solution (5% w/v non-fat dried milk/PBS) for 30 min at room temperature (RT). Cells were then incubated with 0.5 μM Anticalin in 5% w/v non-fat dried milk/PBS for 45 min at RT followed by incubation with a Strep-tag II specific monoclonal antibody StrepMAB-Immo (2 μg/mL in PBS/0.05% Tween-20; IBA, 2-1517) for 1 h at RT. An anti-mouse secondary antibody conjugated to Alexa Fluor 488 (5 μg/mL in PBS/0.05% Tween-20; Life Technologies, A11029) served as detection reagent and was applied for 1 h at RT. All incubation steps were interspersed by extensive washing with PBS/0.05% Tween-20. […]
For immunofluorescence microscopy, the different cell lines were fixed with paraformaldehyde on glass coverslips and permeabilized. Following a blocking step, cells were probed with the Anticalin A3A5, which was detected by a murine antibody (StrepMAB-Immo) recognizing the Strep-tag II and an Alexa Fluor 488-labeled anti-mouse secondary antibody. […] Also, when wild-type Lcn2 was used instead of the Anticalin A3A5, no fluorescent staining was detected. […]

T1 sequence (Q04609 44-750 limits assumed): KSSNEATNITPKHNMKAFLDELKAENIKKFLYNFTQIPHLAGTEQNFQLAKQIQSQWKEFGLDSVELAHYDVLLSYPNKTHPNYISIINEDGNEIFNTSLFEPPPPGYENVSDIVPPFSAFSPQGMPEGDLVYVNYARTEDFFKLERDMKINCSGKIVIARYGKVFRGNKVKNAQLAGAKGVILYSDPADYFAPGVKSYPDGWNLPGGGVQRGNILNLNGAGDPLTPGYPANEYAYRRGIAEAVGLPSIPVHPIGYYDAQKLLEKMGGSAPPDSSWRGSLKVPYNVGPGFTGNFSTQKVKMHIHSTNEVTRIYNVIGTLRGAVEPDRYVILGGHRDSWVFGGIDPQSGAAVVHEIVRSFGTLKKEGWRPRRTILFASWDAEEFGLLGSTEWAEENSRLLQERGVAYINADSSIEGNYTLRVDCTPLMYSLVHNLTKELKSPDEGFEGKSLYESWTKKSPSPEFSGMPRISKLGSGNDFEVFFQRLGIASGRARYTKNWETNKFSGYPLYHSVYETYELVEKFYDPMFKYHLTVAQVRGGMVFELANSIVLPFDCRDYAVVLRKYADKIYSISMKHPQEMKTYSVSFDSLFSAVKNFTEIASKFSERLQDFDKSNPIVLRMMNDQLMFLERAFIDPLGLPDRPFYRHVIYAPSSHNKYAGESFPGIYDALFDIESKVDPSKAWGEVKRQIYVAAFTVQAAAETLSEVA

B1: Anticalin candidate G4 (designed binder)
chain: QDSTSDLIPAPPLSKVPLQQNFQDNQFHGKWYVVGHAGNMLLREDKDPSKMVATIYELKEDKSYNVTQVDFGTKKCFYAINTFVPGSQPGEFTLGHIKSNPGMTSMLVRVVSTNYNQHAMVFFKAVLQNREGFLITLYGRTKELTSELKENFIRFSKSLGLPENHIVFPVPIDQCIDG
notes: also called G4 clone; not shown: C-terminal Strep-tag II
Question: Does B1 bind [1]?
Answer: no binding

B2: Anticalin A3A5.8 (designed binder)
chain: QDSTSDLIPAPPLSKVPLQQNFQDNQFHGKWYVVGLAGNVILREDKDPYKMSATIYELKEDKSYNVTNVRYYLNKCYYTIATFVPGSQPGEFTLGTIKSGPGDTSGLVRVVSTNYNQHAMVFFKEVQQNREWFIITLYGRTKELTSELKENFIRFSKSLGLPENHIVFPVPIDQCIDG
notes: A3A5 with Y at 71, N at 74 and D at 103; also called variant A3A5.8; not shown: C-terminal Strep-tag II
Question: What does the source list for B2?
Answer: fold improvement of KD against A3A5 [2]: ~2 fold; Kd [3]: 1.4 nM; koff [3]: 0.00015 s⁻¹; kon [3]: 110000 M⁻¹ s⁻¹

B3: wild-type Lcn2 (other)
chain: QDSTSDLIPAPPLSKVPLQQNFQDNQFQGKWYVVGLAGNAILREDKDPQKMYATIYELKEDKSYNVTSVLFRKKKCDYWIRTFVPGCQPGEFTLGNIKSYPGLTSYLVRVVSTNYNQHAMVFFKKVSQNREYFKITLYGRTKELTSELKENFIRFSKSLGLPENHIVFPVPIDQCIDG
notes: Negative control in microscopy and flow cytometry; also called wt Lcn2; lipocalin 2
Question: Does B3 bind [4]?
Answer: no binding (tested: 0.5 µM)
